# Legend:
# [1] = target: 3.L2 TCR; assay: bond lifetime vs force measurement (method not named for this panel); conditions: solid fitted curve (TCR-pMHC-II model) read at force = 10 pN; TCR on CD4-CD8+ naive T cells; parent: est. 2.3; read off a plot
# [2] = target: K5:I-E^k (UniProt P04230); assay: BFP force-dependent bond lifetime measurement; conditions: solid fitted curve (TCR-pMHC-II model) read at force = 10 pN; TCR on hybridomas; parent: est. 1.6; read off a plot
# UniProt P04230, sequence (P04230 whole entry, looked up): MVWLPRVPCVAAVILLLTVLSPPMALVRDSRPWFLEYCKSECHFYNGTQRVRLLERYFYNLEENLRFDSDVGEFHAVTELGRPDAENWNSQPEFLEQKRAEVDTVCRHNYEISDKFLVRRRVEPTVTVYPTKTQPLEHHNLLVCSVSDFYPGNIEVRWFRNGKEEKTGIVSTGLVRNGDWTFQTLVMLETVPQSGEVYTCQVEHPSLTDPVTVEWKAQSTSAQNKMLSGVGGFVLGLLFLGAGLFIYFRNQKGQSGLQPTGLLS
Substance,other: bond lifetime [1] [s],other: bond lifetime [2] [s]
Hb:I-Ek T72,1.1,
hybrid 2B4 TCR with its mouse Vαβ fused with the Cαβ of the human LC13 (WT) (from UniProt P01848) β:G182A; β:K183A,,1.3
hybrid 2B4 TCR with its mouse Vαβ fused with the Cαβ of the human LC13 (WT) (from UniProt P01848) β:H221A; β:N222A,,0.38
hybrid 2B4 TCR with its mouse Vαβ fused with the Cαβ of the human LC13 (WT) (from UniProt P01848) β:N222A; β:P223A,,2.2
hybrid 2B4 TCR with its mouse Vαβ fused with the Cαβ of the human LC13 (WT) (from UniProt P01848) β:N225A; β:H226A,,0.15
